Data taken from the supplement of paper PMC10567573.
± gives the standard deviation.

Assay: protein stability index of a GFP-peptide fusion (GPS, HEK-293T) (PSI 1-6); higher = more stable
Conditions: c terminus: a fixed tail appended
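Note: 24-mer peptide tiles fused after GFP, lentivirally expressed, FACS-sorted into six equal bins by GFP/DsRed ratio, decoded by Illumina sequencing, PSI is the read-weighted mean bin number.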

Row | Sequence | protein stability index (treatment: DMSO) | protein stability index (treatment: MLN4924 1 uM, 8 h)
1 | AERLTATGILLHPWLRQDPMPLAP [TRIB3] | 2.78 ± 0.22 | 2.91 ± 0.18
2 | GNQLISNNIKFKKSSILTRAGEQR [CLCN6] | 3.78 ± 0.13 | 4.06 ± 0.44
3 | EHGLHTKYIHRMMQIEFIKQGSMN [TRAF3IP2] | 2.3 ± 0.2 | 2.5 ± 0.26
4 | NLGVENMNHYKKTTLEIHNTEERQ [PTPN9] | 4.4 ± 0.2 | 4.8 ± 0.28
5 | GYPLPKLDMNFSLENREEPWVKEL [ZNF449] | 3.53 ± 0.12 | 3.7 ± 0.2
6 | HISTFINELDSGFRLLNLKNDSLR [TSN] | 2.23 ± 0.13 | 2.1 ± 0.25
7 | VQSIELQRPRFITSGGSNIIYVAS [VPS39] | 2.35 ± 0.44 | 2 ± 0.22
8 | AKAAALSTKTPAPCSEFMEPSSDP [SPAG8] | 5.1 ± 0.33 | 5.41 ± 0.19
9 | KDFANTIPGHGGIMDRFDCQYLMA [CDS2] | 2.69 ± 0.37 | 2.8 ± 0.26
10 | NEEIQSFIYSLKQMLLNVEANSAK [FSD1] | 2.99 ± 0.73 | 2.72 ± 0.38
11 | YNENVYTEDGKLDIWSKSNYQVFQ [MED27] | 2.5 ± 0.42 | 2.97 ± 0.4
12 | AGGHPAQLGLGRGASTFKEEPQTV [JUNB] | 4.511 ± 0.035 | 4.58 ± 0.32
13 | SLSHSPGCSSTQGNGRPGRPSQYR [LCOR] | 4.44 ± 0.13 | 4.67 ± 0.22
14 | NTLAPTCFKAKLHRKRGSQPPDMA [RSPH3] | 3.83 ± 0.12 | 3.87 ± 0.25
15 | VLQDGCVFEKAGVSISVVHGNLSE [CPOX] | 3.21 ± 0.32 | 3.05 ± 0.53
16 | LKLRQQVIATATVYFKRFYARYSL [CCNC] | 2.85 ± 0.51 | 2.49 ± 0.18
17 | ASFDRRGEYIYTGNAKGKILVLKT [RBBP5] | 2.02 ± 0.19 | 2.29 ± 0.32
18 | PQKASPNGSISSAGNSSRNSSQSS [BTBD10] | 5.04 ± 0.24 | 4.96 ± 0.13
19 | GGMMPPGPGIPPLMPGMPPGMPPP [ZNF207] | 3.89 ± 0.43 | 4.09 ± 0.15
20 | RQKIWNNMPKDHPVSCCLGLLLES [DYNC2LI1] | 2.25 ± 0.23 | 2.34 ± 0.28
21 | ELKKMVQQSDLGQYVTFLRSFSDK [ALG2] | 2.21 ± 0.29 | 2.53 ± 0.42
22 | TGLMVSLLCLLHFSIVSVAAHLAL [RTN2] | 3.27 ± 0.11 | 2.87 ± 0.27
23 | SGSQMSHNAVTSHQRPGWPGQPHS [NCF4] | 3.95 ± 0.34 | 3.94 ± 0.29

Row | Sequence | protein stability index (treatment: DMSO) | protein stability index (treatment: MLN4924 1 uM, 8 h)
24 | KKFELVPSPPTSPPWGLGPGAGDP [MYCL] | 4.1 ± 0.28 | 4.07 ± 0.21
25 | LCATHFGEPLEKVASVGNSRPTGQ [KISS1] | 3.95 ± 0.4 | 4.01 ± 0.23
26 | PGGGAGMAAGFPYALRAYLGYQAV [CEBPB] | 2.71 ± 0.77 | 2.72 ± 0.41
27 | TPPASPPPSVLISKNEVGIFTTPN [KMT2E] | 4.03 ± 0.18 | 4.06 ± 0.1
28 | YSHSSTRDGRRDRYSSDTTPLLNG [GOSR1] | 4.28 ± 0.4 | 4.31 ± 0.11
29 | WTRNPDDITQEEYGEFYKSLTNDW [HSP90AB1] | 3.81 ± 0.15 | 3.82 ± 0.41
30 | ESLMKDGDKNNDGRIDFDEFLKMM [TNNC2] | 4.53 ± 0.1 | 4.55 ± 0.31
31 | ELKCPVCGSFYREPIILPCSHNLC [TRIM9] | 4.1 ± 0.29 | 4.12 ± 0.32
32 | VAKKTPTKRSTLIISGVSKVPIAQ [C2CD2L] | 3.02 ± 0.33 | 3.24 ± 0.33
33 | DRGKDSVEILMILFAFMLVYPKEF [PPEF2] | 2.97 ± 0.19 | 2.71 ± 0.61
34 | RFPLQEENSVTHHEVKCQGKPLAG [KMT5A] | 4.69 ± 0.27 | 4.55 ± 0.38
35 | AETDEHTGANTKKPEDTAEDLTAK [FAM9B] | 5.74 ± 0.23 | 5.62 ± 0.12
36 | MPDEPVEAPALPAPAAPMVSKGAE [BRD3] | 5.17 ± 0.37 | 5.37 ± 0.3
37 | EKEDAEKENIEKDEDDVDQELANI [SRPK2] | 5.62 ± 0.36 | 5.61 ± 0.31
38 | MRLSWSVAQGPFDSFVVQYEDTNG [TNXB] | 2.26 ± 0.17 | 2.21 ± 0.12
39 | IVSQKQMSDRRENDMSPSNNVVPI [RAB11A] | 4.34 ± 0.13 | 4.54 ± 0.14
40 | GEQEHSQQKEEEEEMAVVPQGLFR [CHGA] | 5.45 ± 0.43 | 5.55 ± 0.28
41 | APAAPMVSKGAESSRSSEESSSDS [BRD3] | 5.59 ± 0.19 | 5.63 ± 0.18
42 | QDQPSEAATGGATLAQTISEAAIG [HDAC6] | 5.09 ± 0.23 | 5.35 ± 0.15
43 | FTFEGFSRLRFLNLGRMIDWVPVE [ZER1] | 2.76 ± 0.63 | 2.81 ± 0.43
44 | GMDFHRFYFENALSKSNKPIHTII [CAMK2D] | 2.94 ± 1.8 | 2.06 ± 1.1
45 | VTIKHVACGDFFTACLTDRGIIMT [NEK8] | 2.96 ± 0.5 | 2.63 ± 0.35
46 | WEYSSSIQNSDNDLPVVQGSSSFS [TRIM29] | 4.61 ± 0.25 | 4.42 ± 0.36

Row | Sequence | protein stability index (treatment: DMSO) | protein stability index (treatment: MLN4924 1 uM, 8 h)
47 | EHYRVQTQQTGTVRFDGYVIDGAT [FEM1B] | 3.64 ± 0.3 | 3.88 ± 0.26
48 | NRVFSLQDLCCRAIVSCTPVHLID [RAB40C] | 2.53 ± 0.26 | 2.35 ± 0.27
49 | LPSNPCATTNACEKPIGSCVTNPC [KRT33B] | 4.29 ± 0.081 | 4.41 ± 0.17
50 | VMYRIGCLRDDVVFFIYLYQRWIY [CLPTM1] | 2.93 ± 0.66 | 2.71 ± 0.32
51 | GSPVNQQPKKNNVMARTRLVVPNK [FAM219A] | 4.17 ± 0.1 | 4.33 ± 0.31
52 | TGESSEPEAKVLHTKRLYRAVVEA [SMG5] | 3.65 ± 0.33 | 3.63 ± 0.24
53 | EFRAHRAVLAASSPYFHDQVLLKG [ZBTB22] | 2.57 ± 0.23 | 2.77 ± 0.4
54 | DVDLLDSKVIEILDSQTEIYQYVQ [DLC1] | 3.41 ± 0.31 | 3.62 ± 0.38
55 | EYFFDRNRPSFDAILYYYQSGGRL [KCNA1] | 2.52 ± 0.43 | 2.18 ± 0.29
56 | SLHKHLTIRLNISDVNDNAPRFNQ [PCDHGC5] | 2.32 ± 0.34 | 2.28 ± 0.27
57 | AALDACSGNDPFAPSEGSAEAAPE [SNAP91] | 5.43 ± 0.25 | 5.46 ± 0.3
58 | VPSEWLSSVYKQQWFAMLRAEQDS [GMCL1] | 2.47 ± 0.19 | 2.43 ± 0.17
59 | QPMCEEHEEERINIYCLNCEVPTC [TRIM55] | 4.43 ± 0.2 | 4.31 ± 0.22
60 | TLTELRRTVQSLEIDLDSMRNLKA [KRT18] | 3 ± 0.5 | 3.06 ± 0.51
61 | CRELGYVEAKSWTASSSYGKGEGP [LOXL2] | 3.44 ± 0.41 | 3.45 ± 0.37
62 | QAFRAIDRADYYLEEFKENAYKDL [PCMTD2] | 3.34 ± 0.15 | 3.17 ± 0.23
63 | DAEMELRAKEEERLNKLRLESEGS [HACD3] | 5.56 ± 0.28 | 5.3 ± 0.24
64 | AYLVTVRGNLSILAAVLVEPKLHT [OR3A1] | 3.21 ± 0.75 | 2.71 ± 0.68
65 | NFDSIYICPSTFACAQLATGAACR [HDAC6] | 2.24 ± 0.21 | 2.16 ± 0.26
66 | YFKEAELKDLLLQVGRGLRYIHSM [WEE1] | 2.48 ± 0.8 | 2.15 ± 0.34
67 | RQPVSFHRVKLTNSTLDPHGHLIL [TBX6] | 2.27 ± 0.16 | 2.27 ± 0.34
68 | RRSQQQQVPVVDFQAELRQAFLAE [SNURF] | 3.84 ± 0.37 | 3.86 ± 0.28
69 | ERFHGVGILGFNSAEWFITAVGAI [ACSBG2] | 2.75 ± 1.1 | 2.78 ± 1.3

Row | Sequence | protein stability index (treatment: DMSO) | protein stability index (treatment: MLN4924 1 uM, 8 h)
70 | WLSANPCPHCGDRTFYDPEPILCP [PRAME] | 2.45 ± 0.19 | 2.69 ± 0.45
71 | LLDVKTRLEQEIATYRRLLEGEDA [KRT16] | 4.24 ± 0.15 | 4.2 ± 0.35
72 | ERRELAVEQGERALERRRRALQEE [ZBED3] | 5.34 ± 0.17 | 5.39 ± 0.31
73 | TRRHPGGSRVISHYAGQDATDPFV [FADS1] | 3.7 ± 0.33 | 3.86 ± 0.089
74 | SITVSKVDKDQPSILNSCEDPVPG [FBXO34] | 5.25 ± 0.22 | 5.25 ± 0.12
75 | EPLPVERDPAAGAAPFRFVARPVR [ZNF511] | 2.77 ± 0.68 | 3.48 ± 0.87
76 | YKGRQLQGCPGAKKHEFLTSVLDA [SMOC2] | 3.39 ± 0.42 | 3.73 ± 0.73
77 | LEQEQEFQVNKLMKKIKKLENDTI [CCDC6] | 4.31 ± 0.6 | 4.19 ± 0.58
78 | FIENNVSKLSLLLNDISRKSEGLS [TRIP13] | 2.39 ± 0.35 | 2.33 ± 0.26
79 | RIHTGERPYMCKECGKAFSQNSSL [ZNF8] | 2.84 ± 0.39 | 3.2 ± 0.74
80 | RQRSSLAKINIVYQELNYRSVEEA [SCNN1D] | 3.41 ± 0.24 | 3.44 ± 0.22
81 | LEPKANLQAALQVLELHHSKLDTT [VPS39] | 4.2 ± 0.19 | 4.31 ± 0.19
82 | VEADINGLRRVLDELTLARTDLEM [KRT15] | 3.29 ± 0.27 | 3.33 ± 0.39
83 | EAAEAVRPEERKTCRNPACGPQWE [ADAMTSL2] | 4.8 ± 0.27 | 4.74 ± 0.21
84 | ELSLVTLFRCIQNMPETLPNNSCY [TNFSF13B] | 3.65 ± 1.3 | 2.94 ± 0.5
85 | CGKAFYKKYRLTEHERAHRGEKPH [ZNF649] | 3.03 ± 0.33 | 3.18 ± 0.18
86 | NKIKVMHKQLLLFHNAVSAYFAGN [ARFIP2] | 2.55 ± 0.64 | 2.34 ± 0.24
87 | QIFANTVDNARIVLQIDNARLAAD [KRT18] | 2.78 ± 0.28 | 2.75 ± 0.33
88 | YSALSCTSDASFHPAFLPQRQAIK [KCNG1] | 2.78 ± 0.23 | 3.18 ± 0.19
89 | QSGCLYRLRALGERHTMDLTVEGF [TMEM120A] | 2.12 ± 0.55 | 2.27 ± 0.2
